Tests used:
human CASPR/p190 = molecular target: T1, human CASPR/p190 (human, UniProt P78357 20-1384); test: immunoprecipitation of IMR-32 lysates with CASPR/p190 antibodies, immunoblotting with contactin antibodies
T1 construct: Endogenous in IMR-32 neuroblastoma cells
T1 sequence: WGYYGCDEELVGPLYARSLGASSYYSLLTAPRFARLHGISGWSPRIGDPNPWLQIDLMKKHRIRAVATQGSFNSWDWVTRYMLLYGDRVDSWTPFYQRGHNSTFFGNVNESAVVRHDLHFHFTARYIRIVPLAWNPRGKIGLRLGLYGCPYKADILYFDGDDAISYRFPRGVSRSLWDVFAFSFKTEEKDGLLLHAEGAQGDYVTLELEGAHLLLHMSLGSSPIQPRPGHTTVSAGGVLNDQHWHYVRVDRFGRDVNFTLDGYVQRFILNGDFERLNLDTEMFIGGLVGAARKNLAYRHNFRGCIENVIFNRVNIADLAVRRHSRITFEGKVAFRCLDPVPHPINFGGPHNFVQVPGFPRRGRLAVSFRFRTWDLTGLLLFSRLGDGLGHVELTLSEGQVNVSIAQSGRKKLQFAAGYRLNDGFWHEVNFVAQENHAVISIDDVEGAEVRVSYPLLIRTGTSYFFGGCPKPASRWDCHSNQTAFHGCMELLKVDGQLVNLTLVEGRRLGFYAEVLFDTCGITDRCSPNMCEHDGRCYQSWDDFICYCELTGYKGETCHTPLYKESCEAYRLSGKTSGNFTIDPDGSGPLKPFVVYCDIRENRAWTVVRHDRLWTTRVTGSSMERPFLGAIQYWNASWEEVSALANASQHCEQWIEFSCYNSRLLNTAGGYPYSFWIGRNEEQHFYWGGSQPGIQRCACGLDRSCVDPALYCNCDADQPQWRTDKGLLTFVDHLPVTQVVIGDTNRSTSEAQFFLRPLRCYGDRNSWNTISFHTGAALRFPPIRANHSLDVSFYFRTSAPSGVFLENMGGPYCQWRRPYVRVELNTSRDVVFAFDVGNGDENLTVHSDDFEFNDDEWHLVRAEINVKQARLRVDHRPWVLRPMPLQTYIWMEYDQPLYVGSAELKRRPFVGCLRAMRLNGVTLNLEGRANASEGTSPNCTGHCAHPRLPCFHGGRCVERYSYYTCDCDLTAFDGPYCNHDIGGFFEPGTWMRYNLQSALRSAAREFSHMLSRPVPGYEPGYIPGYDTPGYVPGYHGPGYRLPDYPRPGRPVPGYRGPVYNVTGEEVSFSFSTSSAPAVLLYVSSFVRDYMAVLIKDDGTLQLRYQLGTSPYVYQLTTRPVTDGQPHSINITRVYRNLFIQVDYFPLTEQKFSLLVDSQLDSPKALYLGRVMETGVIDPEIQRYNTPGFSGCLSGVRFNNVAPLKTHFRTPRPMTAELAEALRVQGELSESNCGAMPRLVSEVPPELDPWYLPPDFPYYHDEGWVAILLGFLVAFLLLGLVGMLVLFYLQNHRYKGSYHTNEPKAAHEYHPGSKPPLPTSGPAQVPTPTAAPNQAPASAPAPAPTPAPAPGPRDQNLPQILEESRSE

rat CASPR/p190 = molecular target: T2, rat CASPR/p190 (rat, UniProt P97846 21-1381); test: co-precipitation of p190 with contactin by the RPTPβ Fc fusion from GH3 membrane extracts
T2 construct: Endogenous in GH3 cells and rat brain, or expressed from pCM190R in COS7 cells; read from membrane lysates; no cleavage site stated; also called Contactin ASsociated PRotein; 190 kDa protein
T2 sequence: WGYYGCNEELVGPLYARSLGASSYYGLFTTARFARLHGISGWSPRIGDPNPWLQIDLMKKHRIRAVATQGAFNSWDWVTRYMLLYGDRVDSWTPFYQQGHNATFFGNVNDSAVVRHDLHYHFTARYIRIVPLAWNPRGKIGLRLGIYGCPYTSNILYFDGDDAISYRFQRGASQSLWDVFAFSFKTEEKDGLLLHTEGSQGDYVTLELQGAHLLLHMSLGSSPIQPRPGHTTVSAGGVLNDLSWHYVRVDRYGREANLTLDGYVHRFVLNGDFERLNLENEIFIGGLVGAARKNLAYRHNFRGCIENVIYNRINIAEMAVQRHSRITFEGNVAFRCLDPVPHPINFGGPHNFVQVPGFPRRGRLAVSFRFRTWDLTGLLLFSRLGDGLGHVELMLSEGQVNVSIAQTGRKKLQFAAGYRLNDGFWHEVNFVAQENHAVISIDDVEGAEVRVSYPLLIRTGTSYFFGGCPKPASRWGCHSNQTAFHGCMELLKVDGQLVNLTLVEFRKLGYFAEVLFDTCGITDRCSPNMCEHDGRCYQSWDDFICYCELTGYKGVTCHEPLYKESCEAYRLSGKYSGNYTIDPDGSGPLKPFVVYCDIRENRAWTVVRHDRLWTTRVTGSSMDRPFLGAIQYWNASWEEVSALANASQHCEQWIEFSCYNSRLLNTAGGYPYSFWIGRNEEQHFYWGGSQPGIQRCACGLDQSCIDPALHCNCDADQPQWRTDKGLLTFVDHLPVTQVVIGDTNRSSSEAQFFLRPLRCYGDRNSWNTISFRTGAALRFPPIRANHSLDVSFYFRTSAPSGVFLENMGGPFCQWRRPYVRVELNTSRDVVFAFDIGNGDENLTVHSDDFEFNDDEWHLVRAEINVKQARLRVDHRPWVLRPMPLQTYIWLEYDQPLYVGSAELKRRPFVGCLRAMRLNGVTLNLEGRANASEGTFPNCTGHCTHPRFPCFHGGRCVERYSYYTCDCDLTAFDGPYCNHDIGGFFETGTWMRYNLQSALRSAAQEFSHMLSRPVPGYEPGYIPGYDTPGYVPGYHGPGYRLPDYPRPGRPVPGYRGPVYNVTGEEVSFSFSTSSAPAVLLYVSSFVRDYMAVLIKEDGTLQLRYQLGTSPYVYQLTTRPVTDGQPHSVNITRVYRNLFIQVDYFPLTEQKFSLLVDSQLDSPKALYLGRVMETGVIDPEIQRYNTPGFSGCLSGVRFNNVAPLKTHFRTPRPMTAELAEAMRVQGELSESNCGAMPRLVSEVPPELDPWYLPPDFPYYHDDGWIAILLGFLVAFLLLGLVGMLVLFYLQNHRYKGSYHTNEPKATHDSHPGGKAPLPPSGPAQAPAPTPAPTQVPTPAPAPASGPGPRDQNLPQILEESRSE

human c-Src = human c-Src (human, UniProt P12931 2-536); test: immunoprecipitation of transfected COS7 lysates with antibodies against c-Src, immunoblotting with anti-fusion antibodies

B1: human contactin of IMR-32 neuroblastoma cells (140 kDa protein) (receptor, UniProt Q12860 21-993, looked up)
chain: EFTWYRRYGHGVSEEDKGFGPIFEEQPINTIYPEESLEGKVSLNCRARASPFPVYKWRMNNGDVDLTSDRYSMVGGNLVINNPDKQKDAGIYYCLASNNYGMVRSTEATLSFGYLDPFPPEERPEVRVKEGKGMVLLCDPPYHFPDDLSYRWLLNEFPVFITMDKRRFVSQTNGNLYIANVEASDKGNYSCFVSSPSITKSVFSKFIPLIPIPERTTKPYPADIVVQFKDVYALMGQNVTLECFALGNPVPDIRWRKVLEPMPSTAEISTSGAVLKIFNIQLEDEGIYECEAENIRGKDKHQARIYVQAFPEWVEHINDTEVDIGSDLYWPCVATGKPIPTIRWLKNGYAYHKGELRLYDVTFENAGMYQCIAENTYGAIYANAELKILALAPTFEMNPMKKKILAAKGGRVIIECKPKAAPKPKFSWSKGTEWLVNSSRILIWEDGSLEINNITRNDGGIYTCFAENNRGKANSTGTLVITDPTRIILAPINADITVGENATMQCAASFDPALDLTFVWSFNGYVIDFNKENIHYQRNFMLDSNGELLIRNAQLKHAGRYTCTAQTIVDNSSASADLVVRGPPGPPGGLRIEDIRATSVALTWSRGSDNHSPISKYTIQTKTILSDDWKDAKTDPPIIEGNMEAARAVDLIPWMEYEFRVVATNTLGRGEPSIPSNRIKTDGAAPNVAPSDVGGGGGRNRELTITWAPLSREYHYGNNFGYIVAFKPFDGEEWKKVTVTNPDTGRYVHKDETMSPSTAFQVKVKAFNNKGDGPYSLVAVINSAQDAPSEAPTEVGVKVLSSSEISVHWEHVLEKIVESYQIRYWAAHDKEEAANRVQVTSQEYSARLENLLPDTQYFIEVGACNSAGCGPPSDMIEAFTKKAPPSQPPRIISSVRSGSRYIITWDHVVALSNESTVTGYKVLYRPDGQHDGKLYSTHKHSIEVPIPRDGEYVVEVRAHSDGGDGVVSQVKIS
modifications: GPI-anchored
notes: whole, on cells; also called p140
Question: Does B1 bind (human CASPR/p190)?
Answer: Result: binds

B2: rat contactin (clone F8; p140 of GH3 cells) (receptor, UniProt Q63198 21-1001, looked up)
chain: EFTWHRRYGHGVSEEDKGFGPIFEEQPINTIYPEESLEGKVSLNCRARASPFPVYKWRMNNGDVDLTNDRYSMVGGNLVINNPDKQKDAGIYYCLASNNYGMVRSTEATLSFGYLDPFPPEDRPEVKVKEGKGMVLLCDPPYHFPDDLSYRWLLNEFPVFITMDKRRFVSQTNGNLYIANVESSDRGNYSCFVSSPSITKSVFSKFIPLIPIPERTTKPYPADIVVQFKDIYTMMGQNVTLECFALGNPVPDIRWRKVLEPMPTTAEISTSGAVLKIFNIQLEDEGLYECEAENIRGKDKHQARIYVQAFPEWVEHINDTEVDIGSDLYWPCVATGKPIPTIRWLKNGYAYHKGELRLYDVTFENAGMYQCIAENAYGTIYANAELKILALAPTFEMNPMKKKILAAKGGRVIIECKPKAAPKPKFSWSKGTEWLVNSSRILIWEDGSLEINNITRNDGGIYTCFAENNRGKANSTGTLVITNPTRIILAPINADITVGENATMQCAASFDPSLDLTFVWSFNGYVIDFNKEITNIHYQRNFMLDANGELLIRNAQLKHAGRYTCTAQTIVDNSSASADLVVRGPPGPPGGLRIEDIRATSVALTWSRGSDNHSPISKYTIQTKTILSDDWKDAKTDPPIIEGNMESAKAVDLIPWMEYEFRVVATNTLGTGEPSIPSNRIKTDGAAPNVAPSDVGGGGGTNRELTITWAPLSREYHYGNNFGYIVAFKPFDGEEWKKVTVTNPDTGRYVHKDETMTPSTAFQVKVKAFNNKGDGPYSLIAVINSAQDAPSEAPTEVGVKVLSSSEISVHWKHVLEKIVESYQIRYWAGHDKEAAAHRVQVTSQEYSARLENLLPDTQYFIEVGACNSAGCGPSSDVIETFTRKAPPSQPPRIISSVRSGSRYIITWDHVVALSNESTVTGYKILYRPDGQHDGKLFSTHKHSIEVPIPRDGEYVVEVRAHSDGGDGVVSQVKISGVSTLS
modifications: GPI-anchored
notes: whole, on cells; On transfected COS7 cells, on GH3 cells, in solubilized GH3 membranes or in rat brain membranes, as the entry says; also called rat homologue of contactin; F3/F11
Question: Does B2 bind (rat CASPR/p190)?
Answer: Result: binds

B3: HA-tagged rat CASPR/p190 (pCM190HA) (receptor, not shown: small tags and cut ends)
chain: T2 sequence
notes: Expressed in COS7 cells; also called tagged CASPR/p190; CASPR/p190 fusion proteins
Question: Does B3 bind (human c-Src)?
Answer: Result: binds
